Results: the RNAGym collection of RNA variant scans (doi:10.7554/elife.80360)

B1: HDV Ribozyme (parent)
chain: GGCCGGCAUGGUCCCAGCCUCCUCGCUGGCGCCGGCUGGGCAACAUUCCGAGGGGACCGUCCCCUCGGUAAUGGCGAAUGGGACCCA

Variants of: B1
Assay: self-cleavage, relative activity (ratio to wild type); higher = more cleavage; co-transcriptional

Row | Variant | self-cleavage
1 | GGCCGGCAUGGUCCCAGCCUCCUCGCUGGCGCCUGCUGGGCAACAUUCCGAGGGGACCGUCCCCUCGGUAAUGGCCAAUGGGACCCA [G34U G76C] | 0.0821
2 | GGCCGGCAUGGUCCCAGCCUCCUCGCUGGCGCCUGCUGGGCAACAUUCCGAGGGGACCGUCCCCUCGGUAAUGGCAAAUGGGACCCA [G34U G76A] | 0.231
3 | GGCCGGCAUGGUCCCAGCCUCCUCGCUGGCGCCUGCUGGGCAACAUUCCUAGGGGACCGUCCCCUCGGUAAUGGCGAAUGGGACCCA [G34U G50U] | 0.191
4 | GGCCGGCAUGGUCCCAGCCUCCUCGCUGGCGCCUGCUGGGCAACAUUCCGAGGGGACCGUCCCCUCGGUAAUGGCGAAUGGGACUCA [G34U C85U] | 0.164
5 | GGCCGGCAUGGUCCCAGCCUCCUCGCUGGCGCCUGCUGGGCAACAUUCCGAGGGGACCGUCCCCUCGGUAAUGGCGAAUGGAACCCA [G34U G82A] | 0.123
6 | GGCCGGCAUGGUCCCAGCCUCCUCGCUGGCGCCUGCUGGUCAACAUUCCGAGGGGACCGUCCCCUCGGUAAUGGCGAAUGGGACCCA [G34U G40U] | 0.0882
7 | GGCCGGCAUGGUCCCAGCCUCCUCGCUGGCGCCGACUGGGCAACAUUCCGAGGGGACCGUCCCCUCGGUAGUGGCGAAUGGGACCCA [G35A A71G] | 0.464
8 | GGCCGGCAUGGUCCCAGCCUCCUCGCUGGCGCCUGCUGGGCAACAUUCCGAGGGGACCGUCCCCUGGGUAAUGGCGAAUGGGACCCA [G34U C66G] | 0.164
9 | GGCCGGCAUGGUCCCAGCCUCCUCGCUGGCGCCUGCUGGGCAACAUUCCGAGGGGACCGUCCCCUAGGUAAUGGCGAAUGGGACCCA [G34U C66A] | 0.0712
10 | GGCCGGCAUGGUCCCAGCCUCCUCGCUGGCGCCGACUGGGCAACAUUACGAGGGGACCGUCCCCUCGGUAAUGGCGAAUGGGACCCA [G35A C48A] | 0.659
11 | GGCCGGCAUGGUCCCAGCCUCCUCGCUGGCGCCUGCUGGGCAACAUUCCGAGGGGACCGUCCCCUCGGUAAUGGCGAAUGCGACCCA [G34U G81C] | 0.144
12 | GGCCGGCAUGGUCCCAGCCUCCUCGCUGGCGCCGACUGGGCAACAUUCCGAGGGGACCGUCCCCUCGGUAAUGGCGAAUGGGACCCU [G35A A87U] | 0.391
13 | GGCCGGCAUGGUCCCAGCCUCCUCGCUGGCGCCUGCUGGGCAACAUUCCGAGCGGACCGUCCCCUCGGUAAUGGCGAAUGGGACCCA [G34U G53C] | 0.136
14 | GGCCGGCAUGGUCCCAGCCUCCUCGCUGGCGCCGACUGGGCACCAUUCCGAGGGGACCGUCCCCUCGGUAAUGGCGAAUGGGACCCA [G35A A43C] | 0.0272
15 | GGCCGGCAUGGUCCCAGCCUCCUCGCUGGCGCCUGCUGGGCAACAUUCCGAGGGGACCGUCCCCUCGGUAAUGGCGAAGGGGACCCA [G34U U79G] | 0.0978
16 | GGCCGGCAUGGUCCCAGCCUCCUCGCUGGCGCCUGCUGGGCAACAUUCCGAGGGGACCGUCCCUUCGGUAAUGGCGAAUGGGACCCA [G34U C64U] | 0.246

Row | Variant | self-cleavage
17 | GGCCGGCAUGGUCCCAGCCUCCUCGCUGGCGCCUGCUGGGCAACAUUCCGAGGGGACCGUACCCUCGGUAAUGGCGAAUGGGACCCA [G34U C61A] | 0.0608
18 | GGCCGGCAUGGUCCCAGCCUCCUCGCUGGCGCCGACUGGGCAACAUUCCGAGGGGCCCGUCCCCUCGGUAAUGGCGAAUGGGACCCA [G35A A56C] | 0.346
19 | GGCCGGCAUGGUCCCAGCCUCCUCGCUGGCGCCGACUGGGCAACCUUCCGAGGGGACCGUCCCCUCGGUAAUGGCGAAUGGGACCCA [G35A A45C] | 0.0378
20 | GGCCGGCAUGGUCCCAGCCUCCUCGCUGGCGCCUGCUGGGCAACAUUCCGAGGGGACCGUCCCCUCGAUAAUGGCGAAUGGGACCCA [G34U G68A] | 0.274
21 | GGCCGGCAUGGUCCCAGCCUCCUCGCUGGCGCCUGCUGGGCAACAUUCCGAAGGGACCGUCCCCUCGGUAAUGGCGAAUGGGACCCA [G34U G52A] | 0.208
22 | GGCCGGCAUGGUCCCAGCCUCCUCGCUGGCGCCGACUGGGCAACAUUCCGAGGGGACCGUCCCCUCGGUAAUGGCGAAUGGGCCCCA [G35A A83C] | 0.0692
23 | GGCCGGCAUGGUCCCAGCCUCCUCGCUGGCGCCGACUGGGGAACAUUCCGAGGGGACCGUCCCCUCGGUAAUGGCGAAUGGGACCCA [G35A C41G] | 0.222
24 | GGCCGGCAUGGUCCCAGCCUCCUCGCUGGCGCCGACUGGGUAACAUUCCGAGGGGACCGUCCCCUCGGUAAUGGCGAAUGGGACCCA [G35A C41U] | 0.524
25 | GGCCGGCAUGGUCCCAGCCUCCUCGCUGGCGCCUGCUGUGCAACAUUCCGAGGGGACCGUCCCCUCGGUAAUGGCGAAUGGGACCCA [G34U G39U] | 0.115
26 | GGCCGGCAUGGUCCCAGCCUCCUCGCUGGCGCCUGCUGCGCAACAUUCCGAGGGGACCGUCCCCUCGGUAAUGGCGAAUGGGACCCA [G34U G39C] | 0.111
27 | GGCCGGCAUGGUCCCAGCCUCCUCGCUGGCGCCUUCUGGGCAACAUUCCGAGGGGACCGUCCCCUCGGUAAUGGCGAAUGGGACCCA [G34U G35U] | 0.175
28 | GGCCGGCAUGGUCCCAGCCUCCUCGCUGGCGCCUGCUGGGCAACAUUCCGAGGAGACCGUCCCCUCGGUAAUGGCGAAUGGGACCCA [G34U G54A] | 0.041
29 | GGCCGGCAUGGUCCCAGCCUCCUCGCUGGCGCCUGCUGGGCAACAUUCCGAGGCGACCGUCCCCUCGGUAAUGGCGAAUGGGACCCA [G34U G54C] | 0.0468
30 | GGCCGGCAUGGUCCCAGCCUCCUCGCUGGCGCCGACUGGGCAACAUUCCGAGGGGACCGUCCCCUCGGUUAUGGCGAAUGGGACCCA [G35A A70U] | 0.62
31 | GGCCGGCAUGGUCCCAGCCUCCUCGCUGGCGCCUGCCGGGCAACAUUCCGAGGGGACCGUCCCCUCGGUAAUGGCGAAUGGGACCCA [G34U U37C] | 0.148
32 | GGCCGGCAUGGUCCCAGCCUCCUCGCUGGCGCCUGCAGGGCAACAUUCCGAGGGGACCGUCCCCUCGGUAAUGGCGAAUGGGACCCA [G34U U37A] | 0.158
